“Also recorded” adds a separate entry of the source.
Tests used:
[1] = test system: PEO1 human ovarian cancer cells; assay: Cell penetration, immunostaining of fixed cells after one hour treatment; type: cell-based; conditions: washed, alkaline phosphatase-conjugated anti-mouse antibody
Method: The ability of 4H2 to penetrate into live cells was tested. PEO1 human ovarian cancer cells were treated with control media or media containing 4H2 or 3E10 (as a positive control) for one hour, and then cells were washed, fixed, and immunostained with an alkaline phosphatase-conjugated anti-mouse antibody.

[2] = test system: live A549 human lung cancer cells; assay: Live cell penetration of FITC-labeled 4H2, fluorescence microscopy; type: cell-based; conditions: FITC-labeled 4H2 4 mg/mL, one hour
Method: (§1) To confirm that 4H2 penetrates live cells and exclude the observation as a fixation artifact, FITC-labeled 4H2 was applied to live Cal12T and A549 human lung cancer cells at 4 mg/mL for one hour. Cells were also treated with Hoechst and MitoTracker stains to allow detection of nuclei and mitochondria, respectively. Cells were then washed and visualized under a fluorescence microscope.

[3] = test system: live Cal12T human lung cancer cells; assay: as above; type: cell-based; conditions: FITC-labeled 4H2 4 mg/mL, one hour
Method: as §1

Cal12T cells = assay: Cell-penetration and co-localization immunofluorescence assay; type: cell-based, human
Method: Cal12T cells were grown on glass coverslips and treated with control media or media containing 0.5 mg/mL 4H2 for one hour. […] For co-localization studies, the fixed cells were also probed overnight with separate rabbit primary antibodies to detect endosomes (C45B10 anti-EEA1 antibody, Cell Signaling), lysosomes (D2D11 anti-LAMP1 antibody, Cell Signaling), endoplasmic reticulum (C81H6 anti-PDI antibody, Cell Signaling), golgi apparatus (D2B6N anti-RCAS1 antibody, Cell Signaling), mitochondria (3E11 anti-COX IV and D3932 anti-AIF antibodies, Cell Signaling), or K-Ras (anti-K-Ras antibody) extensively washed with PBS, and then incubated with an Alexa555-conjugated goat anti-rabbit IgG antibody (Cell Signaling). Cells were also treated with DAPI, and imaged using an EVOS fl digital fluorescence microscope (Advanced Microscopy Group, Bothell, WA) under light, DAPI, GFP, or RFP filters. Fluorescence images were merged using ImageJ (NIH, Bethesda, MD).
After confirming that 4H2 penetrates live cells, subcellular localization was investigated through immunofluorescence co-localization studies. Cal12T cells were treated with 4H2 (0.5 mg/mL) for one hour and were then washed, fixed, and immunostained with an Alexa488-conjugated anti-mouse IgG antibody. […] Cells treated with 4H2 were also co-immunostained with rabbit primary antibodies against markers of early endosomes (EEA1), lysosomes (LAMP1), Golgi (RASC1), ER (PDI), and mitochondria (COX IV), followed by detection with an Alexa555-conjugated anti-rabbit IgG antibody. Use of the Alexa488 and Alexa555-conjugated antibodies to detect 4H2 and organelle markers allowed separate visualization of 4H2 and organelle locations under GFP and RFP filters, respectively. Merging of the GFP and RFP images should yield a yellow signal in areas of co-localization. DAPI co-stain allowed visualization of nuclei in blue. Representative merged images showing DAPI, GFP, and RFP filters for each co-stain were analyzed.
To explore this, Cal12T cells treated with 4H2 were co-stained for 4H2 and K-Ras using the technique described above.

[4] = test system: Single-stranded M13mp18 DNA; assay: Nucleolytic assay; type: biochemical; conditions: 0.5 mg/mL antibody, 37° C., 10 minutes
Method: Single-stranded M13mp18 DNA (50 ng; New England Biolabs, Ipswich, MA) was incubated at 37° C. for 10 minutes in control binding buffer (50 mM Tris-HCl, 100 mM NaCl, 10 mM MgCl2) or binding buffer containing 0.5 mg/mL 4H2, 3E10, or 5C6.
An intriguing feature of some anti-DNA antibodies is an association with catalytic activities. […] To determine if 4H2 has any effect on DNA integrity it was incubated with single-stranded M13mp18 plasmid DNA for 10 minutes and then evaluated the integrity of the DNA on an agarose gel. 3E10 and 5C6 were also included as negative and positive controls, respectively.

[5] = GTPase assay, colorimetric Pi release from GTP; type: biochemical; conditions: 4H2 0-1 mg/mL, 30 minutes, absorbance at 630 nm
Method: Pi release from GTP after incubation with 4H2 (0-1 mg/mL) for 30 min was measured by colorimetric assay using the Innova GTPase activity kit.
The effect of 4H2 on Pi release from GTP was tested using a colorimetric assay. 4H2 (0-1 mg/mL) was incubated with GTP for 30 minutes, and Pi release was measured using the Innova GTPase activity kit. Concentration of Pi released was determined from absorbance at 630 nm and comparison to a free Pi standard curve. 4H2 in buffer alone was used as a blank.

[6] = test system: Akt phosphorylation in Cal12T cells; assay: Western blot of phospho-Akt; type: cell-based, human; conditions: 1 mg/mL
Method: (§2) Cell lysates were prepared and run on 4-15% SDS-PAGE gradient gels, followed by transfer to membranes. Membranes were then blocked and incubated with the indicated primary antibodies, followed by HRP-conjugated secondary antibody and detection of bands by chemiluminescence. Band intensity measurements were taken using ImageJ.
(§3) To probe the effect of 4H2 on signaling its effect on the phosphorylation of Akt was tested in cells.

[7] = test system: Akt phosphorylation in SW48 human colon cancer cells; assay: Western blot of phospho-Akt; type: cell-based; conditions: 1 mg/mL, 4 hours
Method: FIG. 1A is a line graph showing the effect of 4H2 on release Pi from GTP as measured by colorimetric assay (N=2). FIG. 1B is a bar graph showing the relative amounts of phospho-Akt in Cal12T cells treated with 1 mg/mL 4H2 at 4 and 24 hours relative to control (*p<0.05. N=4). FIG. 1C is a bar graph showing the relative amounts of phospho-Akt in SW48 human colon cancer cells treated with 1 mg/mL 4H2 at 4 hours relative to control (*p<0.05. N=2).
as §2, §3

[8] = test system: G12C K-Ras-mutant Cal12T lung cancer cells; assay: Clonogenic survival by colony formation assay; type: cell-based, human
Method: (§4) FIG. 2A is a line graph showing the effects of 4H2 on a matched pair of isogenic parental (WT) and G12C K-Ras-mutant (KRAS) Cal12T lung cancer cells. Clonogenic survival was measured by colony formation assay (*p<0.02. N=6). FIGS. 2B and 2C are line graphs showing H441 (2B) and H358 K-Ras (2C) addicted human lung cancer cells (G12V and G12C mutations, respectively) treated with control media or media containing 4H2. Surviving fractions were determined by colony formation assay (*p<0.01. N>3). FIG. 2D is a line graph showing the effect of 4H2 on tumor volume (mm^3) of H358 tumor xenografts generated in the flanks of nude mice by subcutaneous injection of tumor cells. Once tumors reached ˜100 mm3 volume mice were treated with direct tumor injection of 50 uL of control PBS or PBS containing 0.5 mg/mL 4H2 twice a week for three weeks. Tumor volumes were monitored, and growth curves are shown. […] N=3 mice per group.
(§5) Aberrations in cell signaling caused by activating mutations in small GTPases such as the Ras family of proteins are found in ˜30% of malignancies, and K-Ras is one of the most frequently mutated small GTPases (Adjei, J Natl Cancer Inst, 93:1062-1074 (2001), Gysin, et al., Genes Cancer, 2:359-372 (2011)). Development of therapies that are preferentially toxic to K-Ras mutant cancer cells is a major goal in oncology. […]

[9] = test system: parental (WT) Cal12T lung cancer cells; assay: Clonogenic survival by colony formation assay; type: cell-based, human; conditions: WT K-Ras
Method: as §4, §5

[10] = test system: H358 K-Ras addicted human lung cancer cells; assay: Surviving fraction by colony formation assay; type: cell-based; conditions: K-Ras G12C
Method: as §4
(§6) Lastly, to confirm that 4H2 is toxic to K-Ras addicted cancer cells in vivo, H358 subcutaneous xenografts were generated in nude mice and treated by direct injection with control buffer or 25 ug of 4H2 twice a week for three weeks.

[11] = test system: H441 K-Ras addicted human lung cancer cells; assay: Surviving fraction by colony formation assay; type: cell-based; conditions: K-Ras G12V
Method: as §4, §6

[12] = test system: H358 subcutaneous xenografts; assay: Tumor growth suppression assay; type: in vivo, nude mice; conditions: intratumoral 25 ug (50 uL of 0.5 mg/mL) twice a week for three weeks; day 15 after initiation of treatment, p<0.01
Method: as §4
Subcutaneous xenografts were generated in nude mice by injection of 1×10^6 H358 cancer cells. Treatment with direct intratumoral injection of 50 uL of control PBS (N=3) or 4H2 in PBS (0.5 mg/mL) (N=3) twice a week for three weeks was initiated once tumors reached ˜100 mm^3. Tumor volumes were tracked by caliper measurements. […]

cAMP in cultured cells = conditions: previous findings; cited from earlier work
[13] = preliminary findings, data not published; cited from earlier work
[14] = test system: Htori-3-LLU thyroid epithelial cells; conditions: cited from earlier work
ERK and Akt = conditions: cited from earlier work
DLD1 colon cancer cells = assay: 4H2 scFv cell penetration, protein L immunostaining; type: cell-based; conditions: 6 μM, one hour

B1: 4H2: monoclonal anti-guanosine antibody produced by a hybridoma from MRL/lpr; VL SEQ ID NO:1, VH SEQ ID NO:5 (antibody, listed as Mus musculus, V domains shown)
VH: EVQLQQSGPELVKPGASVKMSCKASGYTFTDYYMNWVKQSHGKSLEWIGRVNPSNGGISYNQKFKGKATLTVDKSLSTAYMQLNSLTSEDSAVYYCARGPYTMYYWGQGTSVTVSS
VL: DIVLTQSPATLSVTPGDRVSLSCRASQSISNYLHWYQQKSHESPRLLIKYASQSISGIPSRFSGSGSGTDFTLSIISVETEDFGMYFCQQSNSWPLTFGAGTKLELK
With B1 the “location of antibody staining in cells” value [1] was “exclusively cytoplasmic staining”, the “4H2 signal in nuclei (overlay with Hoechst)” value [2] was “absence of 4H2 signal in the nuclei” and the “FITC fluorescence correlating to 4H2, location” value [2] was “detected in the cytoplasm”. For the same molecule, the “co-localization with mitochondria (MitoTracker)” value [2] was “a distinct co-localization with mitochondria could not be confirmed”, the “4H2 signal in nuclei (overlay with Hoechst)” value [3] was “absence of 4H2 signal in the nuclei” and the “FITC fluorescence correlating to 4H2, location” value [3] was “detected in the cytoplasm”. For the same molecule, the “co-localization with mitochondria (MitoTracker)” value [3] was “a distinct co-localization with mitochondria could not be confirmed”, the “co-localization with endosomes or lysosomes” value (Cal12T cells; 0.5 mg/mL, one hour) was “did not colocalize with endosomes or lysosomes” and the “Alexa488 signal (4H2) location” value (Cal12T cells; 0.5 mg/mL, one hour, fixed cells) was “detected in the cytoplasm”. The “localization to organelles: early endosomes (EEA1), lysosomes (LAMP1), Golgi (RASC1), ER (PDI), mitochondria (COX IV)” value (Cal12T cells; 0.5 mg/mL, one hour, fixed cells, merged GFP/RFP images) was “did not appear to directly localize to any of the organelles tested”, the “co-localization with K-Ras” value (Cal12T cells; co-stain for 4H2 and K-Ras, merged fluorescence) was “at least some degree of co-localization” and the “effect on DNA integrity (agarose gel)” value [4] was “neither 3E10 nor 4H2 had any discernible effects on the DNA integrity”. For the same molecule, the “Pi release from GTP” value [5] was “dose-dependent release of Pi from GTP”, the “amount of phospho-Akt relative to control” value ([6]; 24 hours) was “reduced the amount of phospho-Akt” and the “amount of phospho-Akt relative to control” value ([6]; four hours) was “reduced the amount of phospho-Akt”. The “amount of phospho-Akt relative to control” value [7] was “reduce amounts of p-Akt”, the “clonogenic survival, sensitivity to 4H2” value [8] was “highly sensitive to 4H2” and the “clonogenic survival, sensitivity to 4H2” value [9] was “more resistant to its effects”. For the same molecule, the “surviving fraction, sensitivity to 4H2” value [10] was “sensitive to 4H2”, the “surviving fraction, sensitivity to 4H2” value [11] was “sensitive to 4H2” and the “tumor growth / tumor volume” value [12] was “statistically significant difference in tumor volumes; also recorded: Detectable suppression of tumor growth”. The cAMP in cells (cAMP in cultured cells) was “reduces cAMP in cells”, the “cleavage of GTP” value [13] was “catalyzed cleavage of the gamma-phosphate bond in radiolabeled GTP” and the association with mitochondria [14] was “appeared to associate with mitochondria”. For the same molecule, the “phosphorylation of ERK and Akt” value (ERK and Akt) was “reduce phosphorylation of ERK and Akt”.

B2: 4H2 scFv: single chain variable fragment of 4H2, SEQ ID NO:22: VL, linker, VH, His6 tag (protein)
scFv: DIVLTQSPATLSVTPGDRVSLSCRASQSISNYLHWYQQKSHESPRLLIKYASQSISGIPSRFSGSGSGTDFTLSIISVETEDFGMYFCQQSNSWPLTFGAGTKLELKADAAPGGGGSGGGGSGGGGSEVQLQQSGPELVKPGASVKMSCKASGYTFTDYYMNWVKQSHGKSLEWIGRVNPSNGGISYNQKFKGKATLTVDKSLSTAYMQLNSLTSEDSAVYYCARGPYTMYYWGQGTSVTVSSHHHHHH
With B2 the cell penetration (DLD1 colon cancer cells) was “cell-penetrating activity”.

Source: patent US12486318B2, “Anti-guanosine antibody as a molecular delivery vehicle” (Yale University, priority 2016, dated 2025)
